One block for each binder: values may come before it.
Tests used:
recombinant human IL-1α [1] = target: T1, recombinant human IL-1α (human, UniProt P01583 113-271); test: cell-based or functional assay
T1 sequence (looked up): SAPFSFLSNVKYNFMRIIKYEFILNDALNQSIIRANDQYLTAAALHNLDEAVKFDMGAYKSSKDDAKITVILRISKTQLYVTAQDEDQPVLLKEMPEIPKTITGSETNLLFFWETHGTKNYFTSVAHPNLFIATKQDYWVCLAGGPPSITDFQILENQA

recombinant human IL-1α [2] = target: T1, recombinant human IL-1α; test: SPR (Biacore); end of the range tied to DVD1-Ig by the Kd values of Table 13
Experimental: The kinetics of DVD-Ig binding to rhIL1-α and rhIL1-β was determined by surface plasmon resonance-based measurements with a Biacore 3000 instrument (Biacore AB, Uppsala, Sweden) using HBS-EP (10 mM HEPES, pH 7.4, 150 mM NaCl, 3 mM EDTA, and 0.005% surfactant P20) at 25° C. All chemicals were obtained from Biacore AB (Uppsala, Sweden) or otherwise from a different source as described herein. Approximately, 5000 RU of goat anti-human IgG Fcγ fragment specific polyclonal antibody (Pierce Biotechnology Inc, Rockford, Ill.) diluted in 10 mM sodium acetate (pH 4.5) was directly immobilized across a CM5 research grade biosensor chip using a standard amine coupling kit according to manufacturer's instructions and procedures at […]. Unreacted moieties on the biosensor surface were blocked with ethanolamine. Modified carboxymethyl dextran surface in flowcell 2 and 4 was used as a reaction surface. Unmodified carboxymethyl dextran without goat anti-human IgG in flow cell 1 and 3 was used as the reference surface. […] The association and dissociation rate constants, kon (M-1s-1) and koff (s-1) were determined under a continuous flow rate of […]. […] The equilibrium dissociation constant (M) of the reaction between DVD-Ig and rhIL1α/β was then calculated from the kinetic rate constants by the following formula: KD=koff/kon. […]

recombinant human IL-1β = recombinant human IL-1β (human, UniProt P01584 117-269); test: cell-based or functional assay
recombinant human IL-1α [3] = target: T1, recombinant human IL-1α; test: cell-based or functional assay; remark: listed apart in the source
human IL-12 [4] = target: T2, human IL-12 (human, UniProt P29459 23-219; P29460 23-328); test: cell-based or functional assay
T2 sequence (looked up) 1: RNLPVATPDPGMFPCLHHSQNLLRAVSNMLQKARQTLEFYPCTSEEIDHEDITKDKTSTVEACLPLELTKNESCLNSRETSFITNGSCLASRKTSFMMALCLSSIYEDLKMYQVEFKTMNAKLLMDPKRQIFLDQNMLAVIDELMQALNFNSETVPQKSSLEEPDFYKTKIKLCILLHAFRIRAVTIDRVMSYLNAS
T2 sequence (looked up) 2: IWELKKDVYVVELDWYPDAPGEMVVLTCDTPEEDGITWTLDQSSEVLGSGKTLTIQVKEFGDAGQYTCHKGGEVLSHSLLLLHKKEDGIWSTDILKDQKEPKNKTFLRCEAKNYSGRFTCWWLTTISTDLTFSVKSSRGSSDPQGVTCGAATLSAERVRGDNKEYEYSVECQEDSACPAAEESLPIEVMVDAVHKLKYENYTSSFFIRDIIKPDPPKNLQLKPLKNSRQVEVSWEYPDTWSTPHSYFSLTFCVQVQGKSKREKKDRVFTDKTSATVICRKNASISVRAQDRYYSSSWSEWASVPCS

human IL-18 [5] = target: T3, human IL-18 (human, UniProt Q14116 37-193); test: cell-based or functional assay
human IL-12 [6] = target: T2, human IL-12; test: SPR (Biacore)
human IL-18 [7] = target: T3, human IL-18; test: SPR (Biacore)

- neutralizing activity, MRC-5 bioassay, fold less than the chimeric Abs (recombinant human IL-1α [1]): 3 fold
- fold lower affinity than the chimeric 3D12.E3 Ab (recombinant human IL-1α [2]): 2 to 3 fold
B1: hIL-1a/bDVD1-Ig (bispecific antibody, human IgG1, kappa)
heavy: not shown
light: NIVLTQSPASLAVSLGQRATISCRASESVDSYGNSYMHWYQQKPGQPPKLLIYLASNLESGVPARFSGSGSRTDFTLTIDPVEADDAATYYCQQNNEDPFTFGSGTKLEIKRNIQMTQTTSSLSASLGDRVTISCRASQDISNCLNWYQQKPDGTVKLLIYYTSRLHSGVPSRFSGSGSGTDYSLTISNLEQEDIATYFCQQGKTLPYAFGGGTKLEINRRTVAAPSVFIFPPSDEQLKSGTASVVCLLNNFYPREAKVQWKVDNALQSGNSQESVTEQDSKDSTYSLSSTLTLSKADYEKHKVYACEVTHQGLSSPVTKSFNRGEC
notes: 13F5.G5 V domains fused directly (no linker) to the N-terminus of 3D12.E3 V domains; human Cγ1/Cκ; also called hIL-1α/βDVD1-Ig

- Potency (IC50) M, IL-1β, MRC-5 bioassay (recombinant human IL-1β): 70 nM
- Potency (IC50) M, IL-1α, MRC-5 bioassay (recombinant human IL-1α [3]): 2.3 nM
B2: hIL-1a/bDVD6a-Ig (bispecific antibody, human IgG1, kappa)
heavy: not shown
light: QIVLTQSPALMSASPGEKVTMTCSASSSVNYMYWYQQKPRSSPKPWIYLTSNLASGVPARFSGSGSGTSYSLTISSMEAEDAATYYCQQWNSNPYTFGGGTKLEMKRTVAAPSVFIFPPQIVLTQSPAIMSASPGEKVTITCSASSSVSYMHWFQQKPGASPKLWIYSTSNLASGVPARFSGSGSGTSYSLTVSRMEAEDAATYYCQQRSTYPYTFGGGTKLEIKRRTVAAPSVFIFPPSDEQLKSGTASVVCLLNNFYPREAKVQWKVDNALQSGNSQESVTEQDSKDSTYSLSSTLTLSKADYEKHKVYACEVTHQGLSSPVTKSFNRGEC

- Potency (IC50) M, IL-1β, MRC-5 bioassay (recombinant human IL-1β): 0.75 nM
- Potency (IC50) M, IL-1α, MRC-5 bioassay (recombinant human IL-1α [3]): 1 nM
B3: hIL-1a/bDVD6b-Ig (bispecific antibody, human IgG1, kappa)
heavy: not shown
light: QIVLTQSPAIMSASPGEKVTITCSASSSVSYMHWFQQKPGASPKLWIYSTSNLASGVPARFSGSGSGTSYSLTVSRMEAEDAATYYCQQRSTYPYTFGGGTKLEIKRTVAAPSVFIFPPQIVLTQSPALMSASPGEKVTMTCSASSSVNYMYWYQQKPRSSPKPWIYLTSNLASGVPARFSGSGSGTSYSLTISSMEAEDAATYYCQQWNSNPYTFGGGTKLEMKRRTVAAPSVFIFPPSDEQLKSGTASVVCLLNNFYPREAKVQWKVDNALQSGNSQESVTEQDSKDSTYSLSSTLTLSKADYEKHKVYACEVTHQGLSSPVTKSFNRGEC

- Potency (IC50, M), IL-12, PHA blast / PBMC assay (human IL-12 [4]): 1.18e-10 M
- Potency (IC50, M), IL-18, KG-1 bioassay (human IL-18 [5]): 7.8e-11 M
- Kd (human IL-12 [6]): 0.113 nM
- Kd (human IL-18 [7]): 0.162 nM
B4: DVD1812LL (anti-IL-18/IL-12 DVD-Ig, 18-12-C, long linker) (bispecific antibody)
heavy: EVQLVQSGTEVKKPGESLKISCKGSGYTVTSYWIGWVRQMPGKGLEWMGFIYPGDSETRYSPTFQGQVTISADKSFNTAFLQWSSLKASDTAMYYCARVGSGWYPYTFDIWGQGTMVTVSSASTKGPSVFPLAPQVQLVESGGGVVQPGRSLRLSCAASGFTFSSYGMHWVRQAPGKGLEWVAFIRYDGSNKYYADSVKGRFTISRDNSKNTLYLQMNSLRAEDTAVYYCKTHGSHDNWGQGTMVTVSS
light: EIVMTQSPATLSVSPGERATLSCRASESISSNLAWYQQKPGQAPRLFIYTASTRATDIPARFSGSGSGTEFTLTISSLQSEDFAVYYCQQYNNWPSITFGQGTRLEIKRTVAAPSVFIFPPQSVLTQPPSVSGAPGQRVTISCSGSRSNIGSNTVKWYQQLPGTAPKLLIYYNDQRPSGVPDRFSGSKSGTSASLAITGLQAEDEADYYCQSYDRYTHPALLFGTGTKVTVLG
notes: see recheck on the constant domain of the DVD1812 light chains; also called DVD1812HC-LL/DVD1812LC-LL

- Potency (IC50) M, IL-1α, MRC-5 bioassay (recombinant human IL-1α [3]): 0.75 nM
B5: hIL-1a/bDVD3a-Ig (bispecific antibody, human IgG1, kappa)
heavy: not shown
light: DIVMTQSQRFMSTSVGDRVSVTCKASQNVGTNIAWYQQKPGQSPRALIYSASYRYSGVPDRFTGSGSGTDFTLTISNVQSVDLAEYFCQQYTRYPLTFGGGTKLEIKRTVAAPETTVTQSPASLSMAIGEKVTIRCITSTDIDVDMNWYQQKPGEPPKLLISQGNTLRPGVPSRFSSSGSGTDFVFIIENMLSEDVADYYCLQSDNLPLTFGAGTKLELKRRTVAAPSVFIFPPSDEQLKSGTASVVCLLNNFYPREAKVQWKVDNALQSGNSQESVTEQDSKDSTYSLSSTLTLSKADYEKHKVYACEVTHQGLSSPVTKSFNRGEC

— US20070071675A1 (AbbVie / Abbott, published 2007)
